{"source": "patent US20120321699A1", "about": "(published 2012)", "biological_target": "HV00044 (6240 TZ5 140C) (HIV-1)", "experiment": "SPR"}
{"binder": "CH01 (antibody, V domains shown) VH: EVQLVESGANVVRPGGSLRLSCKASGFIFENFGFSWVRQAPGKGLQWVAGLNWNGGDTRYADSVKGRFRMSRDNSRNFVYLDMDKVGVDDTAFYYCARGTDYTIDDAGIHYQGSGTFWYFDLWGRGTLVSVSS VL: EIVLTQSPGTLSLSPGERATLSCRASHNVHPKYFAWYQQKPGQSPRLLIYGGSTRAAGIPGKFSGSGSGTDFTLTISRVDPEDFAVYYCQQYGGSPYTFGQGTKVEI", "values": [{"measurement": "Kd", "value": 300, "unit": "nM"}]}
